Source: article PMC9974095, “TP63 gain-of-function mutations cause premature ovarian insufficiency by inducing oocyte apoptosis” (The Journal of Clinical Investigation, 2023)
“And” between values parts separate entries of the source, which are not always exact repeats. Equal values may be shown once.

B1: mouse p63ΔTID (domain or fragment, UniProt O88898-1 1-609, looked up)
chain: MNFETSRCATLQYCPDPYIQRFIETPAHFSWKESYYRSAMSQSTQTSEFLSPEVFQHIWDFLEQPICSVQPIELNFVDEPSENGATNKIEISMDCIRMQDSDLSDPMWPQYTNLGLLNSMDQQIQNGSSSTSPYNTDHAQNSVTAPSPYAQPSSTFDALSPSPAIPSNTDYPGPHSFDVSFQQSSTAKSATWTYSTELKKLYCQIAKTCPIQIKVMTPPPQGAVIRAMPVYKKAEHVTEVVKRCPNHELSREFNEGQIAPPSHLIRVEGNSHAQYVEDPITGRQSVLVPYEPPQVGTEFTTVLYNFMCNSSCVGGMNRRPILIIVTLETRDGQVLGRRCFEARICACPGRDRKADEDSIRKQQVSDSAKNGDGTKRPFRQNTHGIQMTSIKKRRSPDDELLYLPVRGRETYEMLLKIKESLELMQYLPQHTIETYRQQQQQQHQHLLQKQTSMQSQSSYGNSSPPLNKMNSMNKLPSVSQLINPQQRNALTPTTMPEGMGANIPMMGTHMPMAGDMNGLSPTQALPPPLSMPSTSHCTPPPPYPTDCSIVSFLARLGCSSCLDYFTTQGLTTIYQIEHYSMDDLASLKIPEQFRHAIWKGILDHRQLHD
notes: mouse p63 (TAp63α) without the TID; the mouse allele of the same name carries c.1828_1829insGA (p.F610*, NM_001127259.1), a stop codon prior to the TID; also called mutant p63ΔTID
B2: TAp63α (human TP63), wild type (natural protein, UniProt Q9H3D4-1 1-680, looked up)
chain: MNFETSRCATLQYCPDPYIQRFVETPAHFSWKESYYRSTMSQSTQTNEFLSPEVFQHIWDFLEQPICSVQPIDLNFVDEPSEDGATNKIEISMDCIRMQDSDLSDPMWPQYTNLGLLNSMDQQIQNGSSSTSPYNTDHAQNSVTAPSPYAQPSSTFDALSPSPAIPSNTDYPGPHSFDVSFQQSSTAKSATWTYSTELKKLYCQIAKTCPIQIKVMTPPPQGAVIRAMPVYKKAEHVTEVVKRCPNHELSREFNEGQIAPPSHLIRVEGNSHAQYVEDPITGRQSVLVPYEPPQVGTEFTTVLYNFMCNSSCVGGMNRRPILIIVTLETRDGQVLGRRCFEARICACPGRDRKADEDSIRKQQVSDSTKNGDGTKRPFRQNTHGIQMTSIKKRRSPDDELLYLPVRGRETYEMLLKIKESLELMQYLPQHTIETYRQQQQQQHQHLLQKQTSIQSPSSYGNSSPPLNKMNSMNKLPSVSQLINPQQRNALTPTTIPDGMGANIPMMGTHMPMAGDMNGLSPTQALPPPLSMPSTSHCTPPPPYPTDCSIVSFLARLGCSSCLDYFTTQGLTTIYQIEHYSMDDLASLKIPEQFRHAIWKGILDHRQLHEFSSPSHLLRTPSSASTVSVGSSETRGERVIDAVRFTLRQTISFPPRDEWNDFNFDMDARRNKQQRIKEEGE
notes: human p63, isoform TAp63α; variants are numbered on NM_003722.5; also called WT TAp63α; source: SAOS-2, transfected (pcDNA3.1-TP63), MG132-treated, in lysate
B3: TAp63α p.S285N (natural protein, human, UniProt Q9H3D4-1 1-680, looked up)
chain: MNFETSRCATLQYCPDPYIQRFVETPAHFSWKESYYRSTMSQSTQTNEFLSPEVFQHIWDFLEQPICSVQPIDLNFVDEPSEDGATNKIEISMDCIRMQDSDLSDPMWPQYTNLGLLNSMDQQIQNGSSSTSPYNTDHAQNSVTAPSPYAQPSSTFDALSPSPAIPSNTDYPGPHSFDVSFQQSSTAKSATWTYSTELKKLYCQIAKTCPIQIKVMTPPPQGAVIRAMPVYKKAEHVTEVVKRCPNHELSREFNEGQIAPPSHLIRVEGNSHAQYVEDPITGRQNVLVPYEPPQVGTEFTTVLYNFMCNSSCVGGMNRRPILIIVTLETRDGQVLGRRCFEARICACPGRDRKADEDSIRKQQVSDSTKNGDGTKRPFRQNTHGIQMTSIKKRRSPDDELLYLPVRGRETYEMLLKIKESLELMQYLPQHTIETYRQQQQQQHQHLLQKQTSIQSPSSYGNSSPPLNKMNSMNKLPSVSQLINPQQRNALTPTTIPDGMGANIPMMGTHMPMAGDMNGLSPTQALPPPLSMPSTSHCTPPPPYPTDCSIVSFLARLGCSSCLDYFTTQGLTTIYQIEHYSMDDLASLKIPEQFRHAIWKGILDHRQLHEFSSPSHLLRTPSSASTVSVGSSETRGERVIDAVRFTLRQTISFPPRDEWNDFNFDMDARRNKQQRIKEEGE
notes: made from pcDNA3.1-TP63 by site-directed mutagenesis; Variant found in a patient with POI; source: SAOS-2, transfected, MG132-treated, in lysate
B4: TAp63α p.T567I (natural protein, human, UniProt Q9H3D4-1 1-680, looked up)
chain: MNFETSRCATLQYCPDPYIQRFVETPAHFSWKESYYRSTMSQSTQTNEFLSPEVFQHIWDFLEQPICSVQPIDLNFVDEPSEDGATNKIEISMDCIRMQDSDLSDPMWPQYTNLGLLNSMDQQIQNGSSSTSPYNTDHAQNSVTAPSPYAQPSSTFDALSPSPAIPSNTDYPGPHSFDVSFQQSSTAKSATWTYSTELKKLYCQIAKTCPIQIKVMTPPPQGAVIRAMPVYKKAEHVTEVVKRCPNHELSREFNEGQIAPPSHLIRVEGNSHAQYVEDPITGRQSVLVPYEPPQVGTEFTTVLYNFMCNSSCVGGMNRRPILIIVTLETRDGQVLGRRCFEARICACPGRDRKADEDSIRKQQVSDSTKNGDGTKRPFRQNTHGIQMTSIKKRRSPDDELLYLPVRGRETYEMLLKIKESLELMQYLPQHTIETYRQQQQQQHQHLLQKQTSIQSPSSYGNSSPPLNKMNSMNKLPSVSQLINPQQRNALTPTTIPDGMGANIPMMGTHMPMAGDMNGLSPTQALPPPLSMPSTSHCTPPPPYPTDCSIVSFLARLGCSSCLDYFTIQGLTTIYQIEHYSMDDLASLKIPEQFRHAIWKGILDHRQLHEFSSPSHLLRTPSSASTVSVGSSETRGERVIDAVRFTLRQTISFPPRDEWNDFNFDMDARRNKQQRIKEEGE
notes: human TAp63α with the patient variant p.T567I (SAM domain), numbered on NM_003722.5; made from pcDNA3.1-TP63 by site-directed mutagenesis; Variant found in a patient with POI; source: SAOS-2, transfected, MG132-treated, in lysate
B5: TAp63α p.L646P (natural protein, human, UniProt Q9H3D4-1 1-680, looked up)
chain: MNFETSRCATLQYCPDPYIQRFVETPAHFSWKESYYRSTMSQSTQTNEFLSPEVFQHIWDFLEQPICSVQPIDLNFVDEPSEDGATNKIEISMDCIRMQDSDLSDPMWPQYTNLGLLNSMDQQIQNGSSSTSPYNTDHAQNSVTAPSPYAQPSSTFDALSPSPAIPSNTDYPGPHSFDVSFQQSSTAKSATWTYSTELKKLYCQIAKTCPIQIKVMTPPPQGAVIRAMPVYKKAEHVTEVVKRCPNHELSREFNEGQIAPPSHLIRVEGNSHAQYVEDPITGRQSVLVPYEPPQVGTEFTTVLYNFMCNSSCVGGMNRRPILIIVTLETRDGQVLGRRCFEARICACPGRDRKADEDSIRKQQVSDSTKNGDGTKRPFRQNTHGIQMTSIKKRRSPDDELLYLPVRGRETYEMLLKIKESLELMQYLPQHTIETYRQQQQQQHQHLLQKQTSIQSPSSYGNSSPPLNKMNSMNKLPSVSQLINPQQRNALTPTTIPDGMGANIPMMGTHMPMAGDMNGLSPTQALPPPLSMPSTSHCTPPPPYPTDCSIVSFLARLGCSSCLDYFTTQGLTTIYQIEHYSMDDLASLKIPEQFRHAIWKGILDHRQLHEFSSPSHLLRTPSSASTVSVGSSETRGERVIDAVRFTPRQTISFPPRDEWNDFNFDMDARRNKQQRIKEEGE
notes: Variant found in a patient with POI; source: SAOS-2, transfected, MG132-treated, in lysate
B6: TAp63α p.R655Q (natural protein, human, UniProt Q9H3D4-1 1-680, looked up)
chain: MNFETSRCATLQYCPDPYIQRFVETPAHFSWKESYYRSTMSQSTQTNEFLSPEVFQHIWDFLEQPICSVQPIDLNFVDEPSEDGATNKIEISMDCIRMQDSDLSDPMWPQYTNLGLLNSMDQQIQNGSSSTSPYNTDHAQNSVTAPSPYAQPSSTFDALSPSPAIPSNTDYPGPHSFDVSFQQSSTAKSATWTYSTELKKLYCQIAKTCPIQIKVMTPPPQGAVIRAMPVYKKAEHVTEVVKRCPNHELSREFNEGQIAPPSHLIRVEGNSHAQYVEDPITGRQSVLVPYEPPQVGTEFTTVLYNFMCNSSCVGGMNRRPILIIVTLETRDGQVLGRRCFEARICACPGRDRKADEDSIRKQQVSDSTKNGDGTKRPFRQNTHGIQMTSIKKRRSPDDELLYLPVRGRETYEMLLKIKESLELMQYLPQHTIETYRQQQQQQHQHLLQKQTSIQSPSSYGNSSPPLNKMNSMNKLPSVSQLINPQQRNALTPTTIPDGMGANIPMMGTHMPMAGDMNGLSPTQALPPPLSMPSTSHCTPPPPYPTDCSIVSFLARLGCSSCLDYFTTQGLTTIYQIEHYSMDDLASLKIPEQFRHAIWKGILDHRQLHEFSSPSHLLRTPSSASTVSVGSSETRGERVIDAVRFTLRQTISFPPQDEWNDFNFDMDARRNKQQRIKEEGE
notes: as for B5
B7: TAp63α p.R643Q (natural protein, human, UniProt Q9H3D4-1 1-680, looked up)
chain: MNFETSRCATLQYCPDPYIQRFVETPAHFSWKESYYRSTMSQSTQTNEFLSPEVFQHIWDFLEQPICSVQPIDLNFVDEPSEDGATNKIEISMDCIRMQDSDLSDPMWPQYTNLGLLNSMDQQIQNGSSSTSPYNTDHAQNSVTAPSPYAQPSSTFDALSPSPAIPSNTDYPGPHSFDVSFQQSSTAKSATWTYSTELKKLYCQIAKTCPIQIKVMTPPPQGAVIRAMPVYKKAEHVTEVVKRCPNHELSREFNEGQIAPPSHLIRVEGNSHAQYVEDPITGRQSVLVPYEPPQVGTEFTTVLYNFMCNSSCVGGMNRRPILIIVTLETRDGQVLGRRCFEARICACPGRDRKADEDSIRKQQVSDSTKNGDGTKRPFRQNTHGIQMTSIKKRRSPDDELLYLPVRGRETYEMLLKIKESLELMQYLPQHTIETYRQQQQQQHQHLLQKQTSIQSPSSYGNSSPPLNKMNSMNKLPSVSQLINPQQRNALTPTTIPDGMGANIPMMGTHMPMAGDMNGLSPTQALPPPLSMPSTSHCTPPPPYPTDCSIVSFLARLGCSSCLDYFTTQGLTTIYQIEHYSMDDLASLKIPEQFRHAIWKGILDHRQLHEFSSPSHLLRTPSSASTVSVGSSETRGERVIDAVQFTLRQTISFPPRDEWNDFNFDMDARRNKQQRIKEEGE
notes: as for B5
B8: TAp63α p.T538A (natural protein, human, UniProt Q9H3D4-1 1-680, looked up)
chain: MNFETSRCATLQYCPDPYIQRFVETPAHFSWKESYYRSTMSQSTQTNEFLSPEVFQHIWDFLEQPICSVQPIDLNFVDEPSEDGATNKIEISMDCIRMQDSDLSDPMWPQYTNLGLLNSMDQQIQNGSSSTSPYNTDHAQNSVTAPSPYAQPSSTFDALSPSPAIPSNTDYPGPHSFDVSFQQSSTAKSATWTYSTELKKLYCQIAKTCPIQIKVMTPPPQGAVIRAMPVYKKAEHVTEVVKRCPNHELSREFNEGQIAPPSHLIRVEGNSHAQYVEDPITGRQSVLVPYEPPQVGTEFTTVLYNFMCNSSCVGGMNRRPILIIVTLETRDGQVLGRRCFEARICACPGRDRKADEDSIRKQQVSDSTKNGDGTKRPFRQNTHGIQMTSIKKRRSPDDELLYLPVRGRETYEMLLKIKESLELMQYLPQHTIETYRQQQQQQHQHLLQKQTSIQSPSSYGNSSPPLNKMNSMNKLPSVSQLINPQQRNALTPTTIPDGMGANIPMMGTHMPMAGDMNGLSPTQALPPPLSMPSTSHCAPPPPYPTDCSIVSFLARLGCSSCLDYFTTQGLTTIYQIEHYSMDDLASLKIPEQFRHAIWKGILDHRQLHEFSSPSHLLRTPSSASTVSVGSSETRGERVIDAVRFTLRQTISFPPRDEWNDFNFDMDARRNKQQRIKEEGE
notes: human TAp63α with the patient variant p.T538A, numbered on NM_003722.5; made from pcDNA3.1-TP63 by site-directed mutagenesis; Variant found in a patient with POI; source: SAOS-2, transfected, MG132-treated, in lysate
B9: TAp63α p.R594* (domain or fragment, human, UniProt Q9H3D4-1 1-593, looked up)
chain: MNFETSRCATLQYCPDPYIQRFVETPAHFSWKESYYRSTMSQSTQTNEFLSPEVFQHIWDFLEQPICSVQPIDLNFVDEPSEDGATNKIEISMDCIRMQDSDLSDPMWPQYTNLGLLNSMDQQIQNGSSSTSPYNTDHAQNSVTAPSPYAQPSSTFDALSPSPAIPSNTDYPGPHSFDVSFQQSSTAKSATWTYSTELKKLYCQIAKTCPIQIKVMTPPPQGAVIRAMPVYKKAEHVTEVVKRCPNHELSREFNEGQIAPPSHLIRVEGNSHAQYVEDPITGRQSVLVPYEPPQVGTEFTTVLYNFMCNSSCVGGMNRRPILIIVTLETRDGQVLGRRCFEARICACPGRDRKADEDSIRKQQVSDSTKNGDGTKRPFRQNTHGIQMTSIKKRRSPDDELLYLPVRGRETYEMLLKIKESLELMQYLPQHTIETYRQQQQQQHQHLLQKQTSIQSPSSYGNSSPPLNKMNSMNKLPSVSQLINPQQRNALTPTTIPDGMGANIPMMGTHMPMAGDMNGLSPTQALPPPLSMPSTSHCTPPPPYPTDCSIVSFLARLGCSSCLDYFTTQGLTTIYQIEHYSMDDLASLKIPEQF
notes: human TAp63α with the nonsense variant p.R594* (stop at codon 594, in the SAM domain; truncates the protein prior to the TID), numbered on NM_003722.5; Nonsense variant found in a patient with POI; lacks the TID; source: SAOS-2, transfected, MG132-treated, in lysate

Target: the molecule itself
Assay: native gel or EMSA; BN-PAGE (NativePAGE 3%-12% Bis-Tris) of lysates of transfected SAOS-2 cells treated with 10 uM MG132 for 12 h; blot with anti-p63

Row | Protein | stoichiometry N
1 | B1 | 4
2 | B2 | 2
3 | B3 | 2
4 | B4 | 2
5 | B5 | 4
6 | B6 | 4 and 2
7 | B7 | 4
8 | B8 | 2
9 | B9 | 4
